Experimental data: US20250313612A1

How the values were obtained:
[1] = target: RSV F protein of subtype A (strain A2) on recombinant mKate-RSV (Respiratory syncytial virus subtype A (strain A2)) (UniProt P03420); test: cell-based or functional assay
[2] = target: human metapneumovirus (HMPV) F protein on GFP-expressing hMPV (NL/1/00, A1 sublineage) (human metapneumovirus); test: cell-based or functional assay

Sequence of RSV F protein of subtype A (strain A2) on recombinant mKate-RSV (Respiratory syncytial virus subtype A (strain A2)) (P03420 26-574): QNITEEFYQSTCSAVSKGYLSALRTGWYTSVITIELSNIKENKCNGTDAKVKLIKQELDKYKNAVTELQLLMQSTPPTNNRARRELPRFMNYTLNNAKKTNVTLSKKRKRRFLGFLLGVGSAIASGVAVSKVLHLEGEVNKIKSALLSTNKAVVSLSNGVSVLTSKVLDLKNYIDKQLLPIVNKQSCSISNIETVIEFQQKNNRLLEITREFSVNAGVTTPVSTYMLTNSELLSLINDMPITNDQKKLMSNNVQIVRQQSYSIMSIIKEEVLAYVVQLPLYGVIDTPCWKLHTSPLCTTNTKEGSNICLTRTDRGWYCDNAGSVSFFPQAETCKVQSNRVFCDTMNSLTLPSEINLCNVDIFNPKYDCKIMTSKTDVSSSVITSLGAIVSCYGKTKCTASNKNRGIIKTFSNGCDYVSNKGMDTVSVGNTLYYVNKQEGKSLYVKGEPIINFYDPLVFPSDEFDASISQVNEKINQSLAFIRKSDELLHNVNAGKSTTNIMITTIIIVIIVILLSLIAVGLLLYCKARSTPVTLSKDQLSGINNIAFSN

MPE8 (antibody)
RSV-A2 IC50 [1]: 0.04 µg/mL
HMPV-A1 IC50 [2]: 0.07 µg/mL
